Target: the molecule itself
Assay: AUC

B1: His-tagged ALDH9A1 (aldehyde dehydrogenase 9A1) (enzyme, human, UniProt P49189 1-494, looked up)
chain: MSTGTFVVSQPLNYRGGARVEPADASGTEKAFEPATGRVIATFTCSGEKEVNLAVQNAKAAFKIWSQKSGMERCRILLEAARIIREREDEIATMECINNGKSIFEARLDIDISWQCLEYYAGLAASMAGEHIQLPGGSFGYTRREPLGVCVGIGAWNYPFQIASWKSAPALACGNAMVFKPSPFTPVSALLLAEIYSEAGVPPGLFNVVQGGAATGQFLCQHPDVAKVSFTGSVPTGMKIMEMSAKGIKPVTLELGGKSPLIIFSDCDMNNAVKGALMANFLTQGQVCCNGTRVFVQKEILDKFTEEVVKQTQRIKIGDPLLEDTRMGPLINRPHLERVLGFVKVAKEQGAKVLCGGDIYVPEDPKLKDGYYMRPCVLTNCRDDMTCVKEEIFGPVMSILSFDTEAEVLERANDTTFGLAAGVFTRDIQRAHRVVAELQAGTCFINNYNVSPVELPFGGYKKSGFGRENGRVTIEYYSQLKTVCVEMGDVESAF
stoichiometry N: 4
